Test results taken from patent publication US20110076682A1 (WISCONSIN ALUMNI RESEARCH FOUNDATION, published 2011).

How the values were obtained:
[1] = target: T1, VeA yeast two-hybrid fusion (veA ORF in pTLexA or pGAD424) (Aspergillus nidulans, UniProt C8VTV4 1-573); experiment: yeast two-hybrid
T1 construct: also called pNJ04; pNJ05
T1 sequence: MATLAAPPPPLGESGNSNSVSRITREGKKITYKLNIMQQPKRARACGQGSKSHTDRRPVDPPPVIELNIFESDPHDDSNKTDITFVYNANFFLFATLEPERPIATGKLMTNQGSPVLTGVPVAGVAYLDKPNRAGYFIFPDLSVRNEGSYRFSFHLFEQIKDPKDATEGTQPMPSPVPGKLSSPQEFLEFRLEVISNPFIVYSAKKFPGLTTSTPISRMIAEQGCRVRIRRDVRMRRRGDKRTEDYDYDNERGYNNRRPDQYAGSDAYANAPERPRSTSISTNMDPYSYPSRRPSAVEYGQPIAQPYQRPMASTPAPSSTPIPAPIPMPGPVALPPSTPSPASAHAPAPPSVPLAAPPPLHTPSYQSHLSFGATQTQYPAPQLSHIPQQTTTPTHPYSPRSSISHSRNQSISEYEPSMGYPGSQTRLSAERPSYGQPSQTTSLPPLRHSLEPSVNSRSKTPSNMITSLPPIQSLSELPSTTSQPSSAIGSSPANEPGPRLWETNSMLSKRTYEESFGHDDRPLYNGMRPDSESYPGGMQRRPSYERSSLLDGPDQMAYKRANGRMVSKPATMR

N-EYFP::VeA = target: T2, N-EYFP::VeA (Aspergillus nidulans, UniProt C8VTV4 1-573); experiment: bimolecular fluorescence complementation in living A. nidulans cells
T2 construct: BiFC construct expressed in A. nidulans (pME3188, pME3189); also called enhanced yellow fluorescent protein fused to the N terminus of veA; not shown: N-terminal part of EYFP (n-eyfp)
T2 sequence: T1 sequence

[2] = target: T3, VeA::TAP* (VeA tagged at its C terminus by TAP tag, veA::ctap*) (Aspergillus nidulans, UniProt C8VTV4 1-573); experiment: tandem affinity purification of veA::ctap* and mass spectrometry, dark
T3 construct: 85 kDa on the immunoblot; also called tagged VeA; VeA::TAP* tag
T3 sequence: T1 sequence

[3] = target: T3, VeA::TAP* (VeA tagged at its C terminus …); experiment: tandem affinity purification and mass spectrometry, dark

B1: VelB yeast two-hybrid fusion (velB ORF in pTLexA or pGAD424) (other)
chain: MYAVEDRAHSGHHPPPLSMDRIPPPSTMYPSSAGPSAMVSPAGQPEPESLSTVHDGRIWSLQVVQQPIRARMCGFGDKDRRPITPPPCIRLIVKDAQTQKEVDINSLDSSFYVVMADLWNADGTHEVNLVKHSATSPSISTAMSSSYPPPPHPTSSDYPASYQTNPYGQPVGQPVGQPVGYAGVGNYYGGSTQLQYQNAYPNPQAQYYQPMYGGMAQPQMPAAQPVTPGPGGMFTRNLIGCLSASAYRLYDTEDKIGVWFVLQDLSVRTEGIFRLKFSFVNVGKSVSDLPQSDIAEVINKGTAPILASTFSEPFQVFSAKKFPGVIESTPLSKVFANQGIKIPIRKDGVKGQGSRGRHSDEDDGLDNEY
notes: also called pNJ20; pNJ23
B1: binds [1].

B2: C-EYFP::LaeA (other)
chain: MFEMGPVGTRLPAMTSPAHNHYSYHSPTSSDRGRSRQNSDAMDIQSITEREPATRYAVAGGPAPWNRNGSPSMSPMYSNNSERNQFHEENGRTYHGFRRGMYFLPCDEQEQDRLDIFHKLFTVARVSESLIYAPHPTNGRFLDLGCGTGIWAIEVANKYPDAFVAGVDLAPIQPPNHPKNCEFYAPFDFEAPWAMGEDSWDLIHLQMGCGSVMGWPNLYRRIFAHLRPGAWFEQVEIDFEPRCDDRSLDGTALRHWYDCLKQATAETMRPIAHSSRDTIKDLQDAGFTEIDHQIVGLPLNPWHQDEHERKVARWYNLAVSESIENLSLAPFSRVYRWPLERIQQLAADVKSEAFNKEIHAYNILHIYQARKPLR
notes: BiFC construct expressed in A. nidulans (pME3188, strain AGB307); not shown: C-terminal part of EYFP (c-eyfp)
B2: binds (N-EYFP::VeA).

B3: C-EYFP::VelB (other)
chain: B1 chain
notes: BiFC construct expressed in A. nidulans (pME3189, strain AGB388); not shown: C-terminal part of EYFP (c-eyfp)
B3: binds (N-EYFP::VeA).

B4: LaeA (other)
chain: B2 chain
notes: Endogenous untagged protein co-purified from A. nidulans extracts; also called regulator LaeA
B4: binds [2].

B5: regulator of sporogenesis VosA (other)
chain: MSAANYPDPSLPRPSTSDDFELIVRQNPNRARVAGGKEKERKPVDPPPIVQIRVREEGTYLAQHYLQSPYFFMSCSLYDAQEDAPASIPPSTALTGTLVSSLHRLKDVDNTDGGFFVWGDLSIKVEGDFRLKFSLFEMRKTDVVFLKSIVSERFTVSPPKSFPGMAESTFLSRSFADQGVKLRIRKEPRTLIKRTAPRPEEYPQAAIPRSPSDRTAMQIPGSSYPAPPYQPTSRDYSYYAPVKRQRTSVDYGARGMYDADGRMRQMETYPQTATLYGQPGGYPTPMMGYPSGHGGVPDYAMSYGLPPSAQVPQMQDPAAQSRSSQQATMQSLGMVNPPGTPTPDSARAMMQQAYPRPQYSASTAVLPPLQQSRNYPQGTNGATRGYYEQSPQATPILPSQPLGTSEAERYGVPPGHTGYDHTGSANGTPR
notes: Endogenous untagged protein co-purified from A. nidulans extracts
B5: no binding [3].
